The values that follow come from EP4613777A1 (Guangdong Keyangle Life Technology Co., Ltd., dated 2025).

The target of experiment [1] is T1, Peptide fragment KL19.
T1 construct: Used as ELISA coating antigen
T1 peptide: KEQPDPGAVAAAAILRAIL
In words: indirect ELISA, peptide as coating antigen. In general terms: In an ELISA, binding on a coated surface is turned into a signal by an enzyme label.

Experiment [2] addresses T2, Peptide fragment KS24.
T2 construct: It contains VLQS; Used as ELISA coating antigen
T2 peptide: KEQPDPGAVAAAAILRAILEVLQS
In words: indirect ELISA, peptide as coating antigen.

B1: KA-001 monoclonal antibody (antibody, mouse IgG1, kappa, V domains shown)
VH: DVKIVESGGGLVKLGGSLKLSCAASGFTFSRNYMSWVRQTPEKRLELVAGINNNGGSTYYPDTVKGRFTISRDNAKNTLYLQMSSLRSEDTAIYYCAKRGFITTVGAMDYWGQGISVTVSS
VL: DIQMTQTTFSLSASLGDRVTISCRASQDISNYLNWYQQIPDGTVKLLIYYTSRLHSGVPSRFSGSGSGTDYSLTISNLEQEDIATYFCQQVHTLPYTFGGGTKLEMKR
notes: also called antibody KA-001
Regarding B1, the binding result in experiment [1] is listed as “no binding”; in experiment [2] it was “binds”.
